Numbered stars: 1 amine (or outer) side, 2 acyl side, 3 side chain; on linkers, the order of the positions; unused ones are H or OH. Square brackets hold non-standard residues; d marks the D form. Side chains are listed from the residue outwards. Ends that are not written are not given here. * marks the point of attachment. C18 diacid = O=C(O)CCCCCCCCCCCCCCCCC(=O)*; γGlu = O=C(O)[C@H](CCC(=O)[*:2])N[*:1]; Met(O2) = CS(=O)(=O)CC[C@H](N)C(=O)O; αMeD = C[C@](N)(CC(=O)O)C(=O)O; Nle = CCCC[C@H](N)C(=O)O; AEEA = NCCOCCOCC(=O)O; Aib = CC(C)(N)C(=O)O
How the values were obtained:
[1] = molecular target: human Glucagon receptor (GCGR) (human, UniProt P47871 26-477); experiment: cell-based or functional assay
Sequence of human Glucagon receptor (GCGR) (P47871 26-477): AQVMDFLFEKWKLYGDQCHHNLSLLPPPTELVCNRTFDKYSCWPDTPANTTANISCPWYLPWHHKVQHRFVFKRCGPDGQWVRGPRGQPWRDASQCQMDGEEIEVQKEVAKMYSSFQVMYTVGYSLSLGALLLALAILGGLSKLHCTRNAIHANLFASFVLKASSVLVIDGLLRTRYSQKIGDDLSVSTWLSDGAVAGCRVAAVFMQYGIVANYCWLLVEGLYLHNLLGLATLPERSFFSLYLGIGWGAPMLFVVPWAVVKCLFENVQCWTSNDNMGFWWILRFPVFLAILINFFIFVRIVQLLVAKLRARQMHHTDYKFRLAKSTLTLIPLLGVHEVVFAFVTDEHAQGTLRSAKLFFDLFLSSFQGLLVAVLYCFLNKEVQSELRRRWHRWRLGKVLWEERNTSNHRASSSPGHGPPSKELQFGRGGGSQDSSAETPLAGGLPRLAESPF

[2] = molecular target: human GLP-1 receptor (GLP1R) (human, UniProt P43220 24-463); experiment: cell-based or functional assay

| Binder | GCGR EC50 human [1] [nM] | GLP1R EC50 human [2] [nM] |
| --- | --- | --- |
| H[Aib]QGTFTSDYSKYLDARAAK([AEEA-AEEA-γGlu-C18 diacid])DFVQWL[Met(O2)][αMeD]T-OH (N-terminus assumed; SMILES CC(C)C[C@H](NC(=O)[C@H](Cc1ccc(O)cc1)NC(=O)[C@H](CCCCN)NC(=O)[C@H](CO)NC(=O)[C@H](Cc1ccc(O)cc1)NC(=O)[C@H](CC(=O)O)NC(=O)[C@H](CO)NC(=O)[C@@H](NC(=O)[C@H](Cc1ccccc1)NC(=O)[C@@H](NC(=O)CNC(=O)[C@H](CCC(N)=O)NC(=O)C(C)(C)NC(=O)[C@@H](N)Cc1c[nH]cn1)[C@@H](C)O)[C@@H](C)O)C(=O)N[C@@H](CC(=O)O)C(=O)N[C@@H](C)C(=O)N[C@@H](CCCNC(=N)N)C(=O)N[C@@H](C)C(=O)N[C@@H](C)C(=O)N[C@@H](CCCCNC(=O)COCCOCCNC(=O)COCCOCCNC(=O)CC[C@H](NC(=O)CCCCCCCCCCCCCCCCC(=O)O)C(=O)O)C(=O)N[C@@H](CC(=O)O)C(=O)N[C@@H](Cc1ccccc1)C(=O)N[C@H](C(=O)N[C@@H](CCC(N)=O)C(=O)N[C@@H](Cc1c[nH]c2ccccc12)C(=O)N[C@@H](CC(C)C)C(=O)N[C@@H](CCS(C)(=O)=O)C(=O)N[C@@](C)(CC(=O)O)C(=O)N[C@H](C(=O)O)[C@@H](C)O)C(C)C) [TP735] | 0.895 | 0.648 |
| H[Aib]QGTFTSDYSKYLDARAAK([AEEA-AEEA-γGlu-C18 diacid])EFVQWL[Met(O2)]DT-NH2 (N-terminus assumed; SMILES CC(C)C[C@H](NC(=O)[C@H](Cc1ccc(O)cc1)NC(=O)[C@H](CCCCN)NC(=O)[C@H](CO)NC(=O)[C@H](Cc1ccc(O)cc1)NC(=O)[C@H](CC(=O)O)NC(=O)[C@H](CO)NC(=O)[C@@H](NC(=O)[C@H](Cc1ccccc1)NC(=O)[C@@H](NC(=O)CNC(=O)[C@H](CCC(N)=O)NC(=O)C(C)(C)NC(=O)[C@@H](N)Cc1c[nH]cn1)[C@@H](C)O)[C@@H](C)O)C(=O)N[C@@H](CC(=O)O)C(=O)N[C@@H](C)C(=O)N[C@@H](CCCNC(=N)N)C(=O)N[C@@H](C)C(=O)N[C@@H](C)C(=O)N[C@@H](CCCCNC(=O)COCCOCCNC(=O)COCCOCCNC(=O)CC[C@H](NC(=O)CCCCCCCCCCCCCCCCC(=O)O)C(=O)O)C(=O)N[C@@H](CCC(=O)O)C(=O)N[C@@H](Cc1ccccc1)C(=O)N[C@H](C(=O)N[C@@H](CCC(N)=O)C(=O)N[C@@H](Cc1c[nH]c2ccccc12)C(=O)N[C@@H](CC(C)C)C(=O)N[C@@H](CCS(C)(=O)=O)C(=O)N[C@@H](CC(=O)O)C(=O)N[C@H](C(N)=O)[C@@H](C)O)C(C)C) [TP704] | 0.27 | 0.37 |
| H[Aib]QGTFTSDYSKYLDARAA[Nle]([1,2,3‑triazole‑5-AEEA-AEEA-γGlu-C18 diacid])DFVQWL[Met(O2)]DT-NH2 [TP712] | 0.25 | 0.45 |
| H[Aib]QGTFTSDYSKYLDARAAK([AEEA-AEEA-γGlu-C18 diacid])EFVQWL[Met(O2)][αMeD] (not fully specified (C-terminus); printed as HUQGTFTSDYSKYLDARAAK(PEG2PEG2γEC18-OH)EFVQWL2αMDT-NH2) [TP713] | 1.52 | 0.71 |
| H[Aib]QGTFTSDYSKYLDARAAK([AEEA-AEEA-γGlu-C18 diacid])DFVQWL[Met(O2)]DT-OH (N-terminus assumed; SMILES CC(C)C[C@H](NC(=O)[C@H](Cc1ccc(O)cc1)NC(=O)[C@H](CCCCN)NC(=O)[C@H](CO)NC(=O)[C@H](Cc1ccc(O)cc1)NC(=O)[C@H](CC(=O)O)NC(=O)[C@H](CO)NC(=O)[C@@H](NC(=O)[C@H](Cc1ccccc1)NC(=O)[C@@H](NC(=O)CNC(=O)[C@H](CCC(N)=O)NC(=O)C(C)(C)NC(=O)[C@@H](N)Cc1c[nH]cn1)[C@@H](C)O)[C@@H](C)O)C(=O)N[C@@H](CC(=O)O)C(=O)N[C@@H](C)C(=O)N[C@@H](CCCNC(=N)N)C(=O)N[C@@H](C)C(=O)N[C@@H](C)C(=O)N[C@@H](CCCCNC(=O)COCCOCCNC(=O)COCCOCCNC(=O)CC[C@H](NC(=O)CCCCCCCCCCCCCCCCC(=O)O)C(=O)O)C(=O)N[C@@H](CC(=O)O)C(=O)N[C@@H](Cc1ccccc1)C(=O)N[C@H](C(=O)N[C@@H](CCC(N)=O)C(=O)N[C@@H](Cc1c[nH]c2ccccc12)C(=O)N[C@@H](CC(C)C)C(=O)N[C@@H](CCS(C)(=O)=O)C(=O)N[C@@H](CC(=O)O)C(=O)N[C@H](C(=O)O)[C@@H](C)O)C(C)C) [TP736] | 3.19 | 1.15 |
| H[Aib]QGTFTSDYSKYLD[Aib]RAAQDFVK([AEEA-AEEA-γGlu-C18 diacid])WL[Met(O2)]DT-OH (N-terminus assumed; SMILES CC(C)C[C@H](NC(=O)[C@H](Cc1c[nH]c2ccccc12)NC(=O)[C@H](CCCCNC(=O)COCCOCCNC(=O)COCCOCCNC(=O)CC[C@H](NC(=O)CCCCCCCCCCCCCCCCC(=O)O)C(=O)O)NC(=O)[C@@H](NC(=O)[C@H](Cc1ccccc1)NC(=O)[C@H](CC(=O)O)NC(=O)[C@H](CCC(N)=O)NC(=O)[C@H](C)NC(=O)[C@H](C)NC(=O)[C@H](CCCNC(=N)N)NC(=O)C(C)(C)NC(=O)[C@H](CC(=O)O)NC(=O)[C@H](CC(C)C)NC(=O)[C@H](Cc1ccc(O)cc1)NC(=O)[C@H](CCCCN)NC(=O)[C@H](CO)NC(=O)[C@H](Cc1ccc(O)cc1)NC(=O)[C@H](CC(=O)O)NC(=O)[C@H](CO)NC(=O)[C@@H](NC(=O)[C@H](Cc1ccccc1)NC(=O)[C@@H](NC(=O)CNC(=O)[C@H](CCC(N)=O)NC(=O)C(C)(C)NC(=O)[C@@H](N)Cc1c[nH]cn1)[C@@H](C)O)[C@@H](C)O)C(C)C)C(=O)N[C@@H](CCS(C)(=O)=O)C(=O)N[C@@H](CC(=O)O)C(=O)N[C@H](C(=O)O)[C@@H](C)O) [TP737] | 1.56 | 2.67 |
| H[Aib]QGTFTSDYSKYLDARAAK([AEEA-AEEA-γGlu-C18 diacid])DFVEWL[Met(O2)]KT-NH2 (N-terminus assumed; SMILES CC(C)C[C@H](NC(=O)[C@H](Cc1ccc(O)cc1)NC(=O)[C@H](CCCCN)NC(=O)[C@H](CO)NC(=O)[C@H](Cc1ccc(O)cc1)NC(=O)[C@H](CC(=O)O)NC(=O)[C@H](CO)NC(=O)[C@@H](NC(=O)[C@H](Cc1ccccc1)NC(=O)[C@@H](NC(=O)CNC(=O)[C@H](CCC(N)=O)NC(=O)C(C)(C)NC(=O)[C@@H](N)Cc1c[nH]cn1)[C@@H](C)O)[C@@H](C)O)C(=O)N[C@@H](CC(=O)O)C(=O)N[C@@H](C)C(=O)N[C@@H](CCCNC(=N)N)C(=O)N[C@@H](C)C(=O)N[C@@H](C)C(=O)N[C@@H](CCCCNC(=O)COCCOCCNC(=O)COCCOCCNC(=O)CC[C@H](NC(=O)CCCCCCCCCCCCCCCCC(=O)O)C(=O)O)C(=O)N[C@@H](CC(=O)O)C(=O)N[C@@H](Cc1ccccc1)C(=O)N[C@H](C(=O)N[C@@H](CCC(=O)O)C(=O)N[C@@H](Cc1c[nH]c2ccccc12)C(=O)N[C@@H](CC(C)C)C(=O)N[C@@H](CCS(C)(=O)=O)C(=O)N[C@@H](CCCCN)C(=O)N[C@H](C(N)=O)[C@@H](C)O)C(C)C) [TP705] | 1.48 | 0.41 |

Reference: patent publication US20200270325A1 (Merck Sharp & Dohme, published 2020)
